Experimental data reported in US20220227815A1, “COMPOSITIONS AND METHODS USEFUL IN TREATING BRAIN DISEASES” (University of Kansas, priority 2019, published 2022).

Assays:
[1] = test system: myelin in the lateral corpus callosum; assay: Remyelination in EAE mouse brain, Luxol fast blue staining; type: in vivo, SJL/elite mice; conditions: EAE mice; BDNF 5.71 nmol/kg ± ADTC5 10 μmol/kg; n=5; compared to BDNF alone or vehicle
Text: Euthanasia, Brain Perfusion, and Extraction: All mice were euthanized via a CO2 chamber. Immediately following euthanasia, mice underwent cervical dislocation and were transcardially perfused with PBS+0.2% Tween-20 followed by perfusion-fixation with a 4% paraformaldehyde and 30% sucrose PBS solution. Following the fixation, the brains were extracted and post-fixed overnight in the perfusion-fixation solution.
Fixed brain samples were submitted to IHC World (Ellicott City, Md.) for paraffin embedding, tissue sectioning (5 μm), anti-NG2 (Abcam, Cambridge, UK) staining via DAB, and Luxol-fast blue staining. Staining protocols described on the IHC World website for Luxol-fast blue and immunohistochemistry enzyme HRP were performed. […]
Luxol-fast blue and anti-NG2 mAb images were taken under identical conditions on a Zeiss Axioplan 2 microscope (Oberkochen, Germany) equipped with a mercury lamp excitation source, and 40× (Luxol) and 20× (anti-NG2) air objective lenses. Greyscale images for quantification were taken using a 1344×1024 Orca ER CCD camera (Hamamatsu Photonics, Japan), color images for qualitative purposes were taken using a 1.3 MP Spot Color camera (Spot Imaging, Sterling Heights, Mich.). […] The mean value of each ROI from each image was recorded. […] The integrated mean grey value for each ROI from each image was recorded. […]

[2] = test system: EGR1, ARC, and NOS1 mRNA transcripts; assay: Fluorescent in situ hybridization of mRNA transcripts in EAE mouse cortex; type: in vivo, SJL/elite mice; conditions: across the three groups, n=5
Protocol: Coronal brain sections (5 μm thickness) from mid- and hind-brain were sectioned and washed three times in PBS before mounting on gelatin-coated glass slides (Superfrost Plus, Thermo Fisher Scientific). Tissue was allowed to dry at RT and then stored at −20° C. until use. Fluorescent in situ hybridization (FISH) was performed using RNAscope® Technology 2.0, Advanced Cell Diagnostics (ACD), Hayward, Calif.) Multiplex Reagent Kit V2. See Vasquez, J. J.; Hussien, R.; Aguilar-Rodriguez, B.; Junger, H.; Dobi, D.; Henrich, T. J.; Thanh, C.; Gibson, E.; Hogan, L. E.; McCune, J.; Hunt, P. W.; Stoddart, C. A.; Laszik, Z. G. Elucidating the Burden of HIV in Tissues Using Multiplexed Immunofluorescence and In Situ Hybridization: Methods for the Single-Cell Phenotypic Characterization of Cells Harboring HIV In Situ. J Histochem Cytochem 2018, 66, (6), 427-446; Gershon, T. R.; Crowther, A. J.; Liu, H.; Miller, C. R.; Deshmukh, M. Cerebellar granule neuron progenitors are the source of Hk2 in the postnatal cerebellum. Cancer Metab 2013, 1, (1), 15; and Smith, P. A.; Schmid, C.; Zurbruegg, S.; Jivkov, M.; Doelemeyer, A.; Theil, D.; Dubost, V.; Beckmann, N. Fingolimod inhibits brain atrophy and promotes brain-derived neurotrophic factor in an animal model of multiple sclerosis. J Neuroimmunol 2018, 318, 103-113. […]

B1: BDNF: recombinant brain-derived neurotrophic factor (13 kDa monomer), Peprotech (protein, UniProt P23560 19-247, looked up)
Neurotrophic factor BDNF …: APMKEANIRGQGGLAYPGVRTHGTLESVNGPKAGSRGLTSLADTFEHVIEELLDEDQKVRPNEENNKDADLYTSRVMLSSQVPLEPPLLFLLEEYKNYLDAANMSMRVRRHSDPARRGELSVCDSISEWVTAADKKTAVDMSGGTVTVLEKVPVSKGQLKQYFYETKCNPMGYTKEGCRGIDKRHWNSQCRTTQSYVRALTMDSKKRIGWRFIRIDTSCVCTLTIKRGR
myelin density in the lateral corpus callosum [1]: myelin discontinuity
NOS mRNA expression [2]: no significant difference
